Source: article PMC4609913

Tests used:
[1] = target: recombinant ADAM12 (A Disintegrin and Metalloproteinase 12), activated by furin (UniProt O43184)
[2] = target: recombinant ADAM12 (A Disintegrin and Metalloproteinase 12), activated by furin (UniProt O43184); experiment: enzyme inhibition assay (fluorogenic FRET-peptide protease activity); 6-point dilution of PA12 incubated with 5 nM recombinant ADAM12 for 10 min before the substrate; 15 uM Dabcyl-LAQAhomopheRSK(FAM)-NH2, 25 mM Tris pH 8, 10^-3% Brij-35, 10 mM CaCl2, 15 uM furin inhibitor 1, RT; Ki inferred from dose-response curves

Sequence of recombinant ADAM12 (A Disintegrin and Metalloproteinase 12), activated by furin (O43184 whole entry): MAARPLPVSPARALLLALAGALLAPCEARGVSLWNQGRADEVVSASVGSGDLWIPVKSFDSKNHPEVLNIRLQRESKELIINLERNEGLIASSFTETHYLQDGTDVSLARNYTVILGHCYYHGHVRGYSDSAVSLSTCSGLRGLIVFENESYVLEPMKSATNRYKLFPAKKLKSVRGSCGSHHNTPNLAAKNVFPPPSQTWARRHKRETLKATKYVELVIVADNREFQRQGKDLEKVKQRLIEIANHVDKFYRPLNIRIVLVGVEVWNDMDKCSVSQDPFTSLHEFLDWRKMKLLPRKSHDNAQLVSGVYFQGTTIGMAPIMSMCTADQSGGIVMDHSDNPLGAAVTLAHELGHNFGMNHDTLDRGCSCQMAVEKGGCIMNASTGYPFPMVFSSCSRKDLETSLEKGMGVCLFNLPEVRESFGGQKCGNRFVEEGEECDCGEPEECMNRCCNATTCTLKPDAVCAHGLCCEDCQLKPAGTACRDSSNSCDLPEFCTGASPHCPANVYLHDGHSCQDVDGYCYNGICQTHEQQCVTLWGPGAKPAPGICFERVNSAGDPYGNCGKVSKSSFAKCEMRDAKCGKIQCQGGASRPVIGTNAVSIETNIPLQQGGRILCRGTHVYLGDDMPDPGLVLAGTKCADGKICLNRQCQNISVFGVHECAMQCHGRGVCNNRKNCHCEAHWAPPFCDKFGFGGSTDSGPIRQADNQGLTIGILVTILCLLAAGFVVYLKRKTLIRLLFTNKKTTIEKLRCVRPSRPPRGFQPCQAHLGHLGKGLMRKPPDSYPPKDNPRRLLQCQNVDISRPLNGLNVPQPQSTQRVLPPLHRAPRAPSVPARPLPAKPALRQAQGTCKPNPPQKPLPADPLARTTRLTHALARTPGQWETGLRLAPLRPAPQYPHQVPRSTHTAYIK

relative level of intact transmembrane HB-EGF on 12Z-HE cells (live-cell Myc immunostaining, flow cytometry) after 2 uM PA12 for 3 h [1]: 20% | Ki [2]: 430 nM
B1: recombinant His-tagged human ADAM12 prodomain (amino acids 29-206) (domain or fragment)
chain: RGVSLWNQGRADEVVSASVGSGDLWIPVKSFDSKNHPEVLNIRLQRESKELIINLERNEGLIASSFTETHYLQDGTDVSLARNYTVILGHCYYHGHVRGYSDSAVSLSTCSGLRGLIVFENESYVLEPMKSATNRYKLFPAKKLKSVRGSCGSHHNTPNLAAKNVFPPPSQTWARRHK
